Data as given in a protein production outcome set (Wang et al. 2014).

Assay: label from the status in PepcDB records

Sequence	protein production
MMVLRMKVEWYLDFVDLNYEPGRDELIVEYYFEPNGVSPEEAAGRIASESSIGTWTTLWKLPEMAKRSMAKVFYLEKHGEGYIAKIAYPLTLFEEGSLVQLFSAVAGNVFGMKALKNLRLLDFHPPYEYLRHFKGPQFGVQGIREFMGVKDRPLTATVPKPKMGWSVEEYAEIAYELWSGGIDLLKDDENFTSFPFNRFEERVRKLYRVRDRVEAETGETKEYLINITGPVNIMEKRAEMVANEGGQYVMIDIVVAGWSALQYMREVTEDLGLAIHAHRAMHAAFTRNPRHGITMLALAKAARMIGVDQIHTGTAVGKMAGNYEEIKRINDFLLSKWEHIRPVFPVASGGLHPGLMPELIRLFGKDLVIQAGGGVMGHPDGPRAGAKALRDAIDAAIEGVDLDEKAKSSPELKKSLREVGLSKAKVGVQH	not failed
MAHATPPSALEQGGPIRVEHDRQRRQFSVRLNGCHDRAVLLYEYVGKRIVDLQHTEVPDAYRGRGIAKHLAKAALDFVVEEDLKAHLTCWYIQKYVKENPLPQYLERLQP	failed
MARIIRRPLNLTAAVRFRLSPLSPFSGNSGSINSETTSWSELIRVPSLVEGCDYKHWLVLMKPPNGYPTRNHIVQSFVETLAMALGSEEEAKRSIYSVSTKYYYAFGCRIHEPLTYKIRSLPDVKWVLPDSFIVDGDNRYGGEPFVDGEVVPYDEKYHADWLRDQTDEDAKSGVVKKKHRRKRKKKLI	failed
MKVTQNENLKLAQRGAFLSLVIYIILSIAKYMTGYVYDSAAVRADALNNMTDILVSVAVIVGLKISIKPADQNHPYGHLKSENISTLLVSFIIMFVGIQVIIENFPRLFTHDSHIPNFITIIISMISGLVMLCVFAINYRLSKRTKSSSLKSAAKDNLSDSLVSIGTAIGLMFTQIGFPIIDIILANILGLLIVYTGFGIFKESIFTLSDGFNEQDLEEYRLDILEVEDVIDVNNIKGRYHGSSIFIDVTIVVDPYLSLYEAHQICDKVEIHLHNKGISSVYVHPEPYTTKDEVK	failed
MEIGLSLGLKSDEGGLKLSLSECGCHVEDITIELEGGASWFYQGMVNAFKDQIGSSVESTIAKKLTEGVSDLDSFLQSLPKEIPVDDNADLNVTFTSDPILRNSSITFEIDGLFTKGETNQVLKSFFKKSVSLVICPGNSKMLGISVDEAVFNSAAALYYNADFVQWVVDKIPEQSLLNTARWRFIIPQLYKKYPNQDMNLNISLSSPPLVKISEQYVGANVNADLVINVLDANQVIPVACISLMIRGSGALRVMGNNLGGSVSLEDFSMSLKWSNIGNLHLHLLQPIVWTVIQTVFVPYANDHLEKGFPLPIMHGFTLQNAEIICSESEITVCSDVAYLDSSQQPQWL	failed
MGAPPPANEDDRLAALHSYNILDTAPEPLYDDITAAAAQLCRTPMALISLIDQDRQWFKSRVGMQPAETPRDLAFCAHAILQPDQMMEVGDTFVDPRFARNALVTGGPQIRFYAGAPLLTSDGVALGTLCVLDRAPRTLSDAERTALQALARQVVTTIELRQAARLLEGDALRDPLTDLWNREGLEHMLEDAAPVAKLHGLAFVLIEIDGFKRLKLQFGSDAADATLVQAARCIETEPQEPGGVARIGAAHFCMVLPGADSAQALASVQRLQTTIAAACWPADTISITAGLVCVAPGEPLDSHVLMARARHALLGAARAGRNCVQRFDGWQTDR	failed
MDTMSQILKLLEKTDSIEINEFRMDVDELELTIMPTLQNVVQKVVEKQIEAKKEFESQIEFKYPVKDYAGKVNEVKLGGKNRKTVKLGGQTSLYRFEEPQPNAPTVTFDVFDIPMNGLPRPIKENFEDVMHSPGEWAQKAVKEFGADMITLHLIGTDPKVKDKSLKDAAKDLEEVLQAVKVPLVIGGSGNPKKDPLVLEMAAEVADGERCLLASANLDLDYQKIAQAAVKHDHAVLSWAISDINMQKVLNKALMKEGLTANDIVMDPTTCALGYGIEFSIDVMTRTRLSALKGDEILQMPMSSGTTNAWGSREAWMKKDEWGPTKYRGPIWEVVTGLTMMLCGVDIFMMLHPLSVKTLKEIGTTLTYEYKSKESQDISDWINKF	not failed
SLSRRKPNPVIVADIRQAEGALAEIATIDRKVGEIEAQMNEAIDAAKARASQKSAPLLARRKELEDGVATFATLNKTEMFKDRKSLDLGFGTIGFRLSTQIVQMSKITKDMTLERLRQFGISEGIRIKEDVNKEAMQGWPDERLEMVGLKRRTTDAFYIEINREEVADTAA	not failed
MATITRTDRLILVPLTVELEDEAHQIYSDSRIWEHRPQARHTNVRVTRDIIKRTNESWGKKDLGPWGVYLRDRPSEFVGVGGVELIDGKVWDLKYRLRPDLWGNGYATEISNAATLATKRIDDSLPLTARVTTNHPASFRILEKLGLTPVWEGRRVGTEDDPNEPDVRIYSDRPLSDEILEMLKQRP	failed
MTAPAICNTTETVHGIATSLGAVARQASLPRIVGTVVGITVLVVVALLVPVPTAVELRDWAKSLGAWFPLAFLLVHTVVTVPPFPRTAFTLAAGLLFGSVVGVFIAVVGSTASAVIAMLLVRATGWQLNSLVRRRAINRLDERLRERGWLAILSLRLIPVVPFAAINYAAGASGVRILSFAWATLAGLLPGTAAVVILGDAFAGSGSPLLILVSVCTGALGLTGLVYEIRNYRRQHRRMPGYDDPVREPALI	failed
TEKTALHLRARRNFRDFRGVSRRTGEEWLVTVQDTEAHVPDVHEEVLGVVPITTLGPHNYCVILDPVGPDGKNQLGQKRVVKGEKSFFLQPGEQLEQGIQDVYVLSEQQGLLLRALQPLEEGEDEEKVSHQAGDHWLIRGPLEYVPSAKVEVVEERQAIPLDENEGIYVQDVKTGKVRAVIGSTYMLTQDEVLWEKELPPGVEELLNKGQDPLADRGEKDTAKSLQPLAPRNKTRVVSYRVPHNAAVQVYDYREKRARVVFGPELVSLGPEEQFTVLSLSAGRPKRPHARRALCLLLGPDFFTDVITIETADHARLQLQLAYNWHFEVNDRKDPQETAKLFSVPDFVGDACKAIASRVRGAVASVTFDDFHKNSARIIRTAVFGFETSEAKGPDGMALPRPRDQAVFPQNGLVVSSVDVQSVEPVDQRTRDALQRSVQLAIEITTNSQEAAAKHEAQRLEQEARGRLERQKILDQS	failed
MLQYGQKSFLIVDDFTDFRTSTRSMLRELGVRDVDTADSGEQALRMCAQKRYDFILQDFHLGDGKKNGQQVLEDLIIDKHISHECVFIMVTAESSQAIVLSAIEHEPDAYLTKPFNRVGLAQRVEKLFQRKTLLKPILQALDRNRPAEVLAACAELCKKDPRLAPLCLRYRADALRNLNRFEELEKFLKAILASRPQPWVYAALGALMHKRGQNAQAQGVYEQALKAFPIMPGLYDGMAEVLVAQGDTRRAQNLLEEAVRLSPLSVRRQSTLGKLALENEDFESASKAFRHAVNQGQSSRYKDAENNLGLVQALMSKNAGFGLDARTRVEINTTLSEVAKENPEDQGLQVRARMMKAASLQQAGDPETAGKLTEQAIQRLDKMNQFFSVDSALTVAAQLQAMGQEAAAIGVLKNCVESYGDDPKVMEKVGKLTDDPSVLNAITEAVTLNRQGVRSYQGGQLGEALQLFRKALGLQPKNISIALNTAQALLRIGGDNPQPAIMQECRDALTSVAGIPASDNRYDRYRKLHIRVFGA	failed
MLAILYDRIRPDERMLFERAEALGLPYKKVYVPALPMVLGERPKELEGVTVALERCVSQSRGLAAARYLTALGIPVVNRPEVIEACGDKWATSVALAKAGLPQPKTALATDREEALRLMEAFGYPVVLKPVIGSWGRLLAKVTDRAAAEALLEHKEVLGGFQHQLFYIQEYVEKPGRDIRVFVVGERAIAAIYRRSAHWITNTARGGQAENCPLTEEVARLSVKAAEAVGGGVVAVDLFESERGLLVNEVNHTMEFKNSVHTTGVDIPGEILKYAWSLAS	not failed
MISLKNFGLLFWKRFSENKLNQVAGALTYSTMLAMVPLVMVIFSIFSAFPVFNEVTGELKEMIFTNFAPSASDMVGEYIDQFVSNSKKMSAVGIVSLIAVALMLINNIDRTLNSIWHNSQSRSPLSSFAIYWMILTLGPLIIGVSIGISSYIKIMFEQSEHLSLGLKLLSFVPFLFTWFIFTLIYTVVPNKKVKIKHSAYGAFLAAIFFTLGKQAFTWYIVTFPSYQLIYGAMATLPIMLLWIQISWLVVLVGAQLASTLDEIGEQIEQ	failed
DHSLAIIEFDLSSRIIEVNQNYLDYFGYQRDEVIGQYHLMFCHPGYANSDEYQKIKTSLLAGQSLEGRFERIHKDGSRVWLAAIYQPVSGPDGSVTRIVKIAKNIT	failed
MEIKDLKRLARYNPEKMAKIPVFQSERMLYDLYALLPGQAQKVHVHEGSDKVYYALEGEVVVRVGEEEALLAPGMAAFAPAGAPHGVRNESASPALLLVVTAPRP	not failed
MTEIYTSVLSYRLLEGKAYSDADTRSLDRMMRSIDEFFSANPGYINFHIYRSYRTDSDVIFWYSSRNPDLMILAKERVQASMRPIAVSSFSSISIYDESPYNAMNKKLEDSLRLPPLRYFVAYPMSKTPDWYLLDFDTRKEIMHEHIKMALNHPDEKGIRSYTTYSFGIGDQEFVVLYEIPDIAAWSRVTEKLREARARKWIIKETPILLGRLVDAGDIAGFLL	not failed
RPKTGFQMWLEENRSNILSDNPDFSDEADIIKEGMIRFRVLSTEERKVWANKAKGETASEGTEAKKRK	not failed
MILTLLQNGDYETARTQALTELKNNSDNAELHYYAAWAHDALGKEDAAIPFYEKALQLGLPADSRKEAYIGLGSTYRITGQPEKSIRLFETALQEFPDNNALRTFSVMAKYNQGLEKEALEEALMLLTQTTSDEDILSYKKAIQFYAQDLDATFHLEHHHHHH	not failed
MMNRLAVRIPTMHSFAWTAADAASRWRLLRISMLLQGFPRNPEPAVRAPDLWRTRVGGGSFGVLFLEAAEVPEALPMQGLSASLVLIAVLAVLAPVATRLLDRWVKVPIVVFEIVLGILFGPSVLGWVQSTPFTDTLADFGLAMLFFVAGNEIDFAAIRGRPIYRASAGWVISLAAGIGAGFVLGPSPEAAVIIGVALCSTALGALLPILRDAGASKSPIGVAATALGAAGEFGPLIAISLFFSGKQLGVASGVLLGFVLLTGVAIYLASQARHTLFHAQVTATLHTSSQFAMRSILLILSSLVVLSMVLGLDMLLGAFAAGVLWKVTIARAPVADRKVIETKIDAVAFGFLVPIFFIDTGIDFDLGALTSSPLTLAMVPLFLSLLLLIRGVPSLLATPPGSSRADKQALLLFGATALPIIVAVTTIGREHGYITSGISSALIGAGMLSVLLFPLLALRLLRRTEAADPKQRTPKA	failed
MNNQSVDVDLITRFDNEAKLHALDSVYAIAEFDLAGKLIEANPLFCKMLGYKKEDIIQKSHTLFLPEAQRQKHDHFWHDVIKGNINAGEFQRKTQKGDIIWLHAAYTPIIDHSGRRIGVIKLALDITQEKRLMSEHRAQLDAIENAQGVIEFDKDGYITHVNKHYLILTGYEAKEILGLHHKSLCDPIYTEQADYQTFWETLHRGHPISGRFHRLGKGNHSFWIQATYSPVMDSDGNVRKIIKYAHNITQNVETEKKAHQQGIILDILLSVHDSFLLDHNLPSACDKVFERLLDVTNSSFGFIATLQEDEDGQSLYLPAISNLAWDEETLTWYRHQRRTHGGLRLRKLDNLFGHVVTHNTVVCTNSLLRQKAGRDLPPIHPALHSLLGIPITHNGKTVGMIALANRREGYDQTMIELLAPLVKTLGIIIHARLLEDERTQIEASLRFNAGHDFLTGLPNRSSFFEQASAFFLLRQQNQHADKSCLAIIDIDLFKNINDQFGHLAGDAVLKELAMLMRMSLRQEDLVARIGGEEFIILLKDVPYQTAVMAIERIRKAIEQHTLEYDRQNLNFTISAGIAAYRSDLASVEDWIQLADENLYAAKRQGRNCVK	failed
